# According to publication PMC7459404, “Structural insights into the enhanced carbapenemase efficiency of OXA‐655 compared to OXA‐10” (FEBS Open Bio, 2020):
# B1: OXA-10 class D β-lactamase (enzyme)
# chain: GSITENTSWNKEFSAEAVNGVFVLCKSSSKSCATNDLARASKEYLPASTFKIPNAIIGLETGVIKNEHQVFKWDGKPRAMKQWERDLTLRGAIQVSAVPVFQQIAREVGEVRMQKYLKKFSYGNQNISGGIDKFWLEGQLRISAVNQVEFLESLYLNKLSASKENQLIVKEALVTEAAPEYLVHSKTGFSGVGTESNPGVAWWVGWVEKETEVYFFAFNMDIDNESKLPLRKSIPTKIMESEGIIGG
# modifications: carboxylated lysine 70 (KCX70); S67 OG covalently bound to the ring-opened carbapenem (IPM or ETP, acyl-enzyme)
# notes: Crystals were soaked with imipenem (6SKP) or ertapenem (6SKR); two chains (A, B) in the asymmetric unit; also called OXA-10_IPM; OXA-10_ETP
# Molecular target: the molecule itself
# Assay: crystal structure; OXA-10 crystals (hanging drop, 4 °C, 20–23% PEG 3350, 0.2 M magnesium formate) soaked about 2 min with IPM; 1.89 Å, P212121, two chains in the asymmetric unit; dimer interface analysed with PISA
protein,measurement,value
B1,binding result,binds
